In patent US10077295B2, “Glycoproteins having lipid mobilizing properties and therapeutic uses thereof” (Aston University, priority 2010, dated 2018):

Key:
[1] = molecular target: T1, human β2-AR (Homo sapiens, UniProt P07550); assay: Cyclic AMP production in CHO-K1 cells transfected with β2-AR; format: cell-based; conditions: CHO-K1 β2-AR
T1 construct: host or cells: CHO-K1
Description: (§1) Binding Studies and Cyclic AMP Determination. CHO-K1 cells transfected with the human β1- and β2-AR obtained from University of Nottingham, UK, while CHOK1 cells transfected with the β3-AR were obtained from Astra Zeneca, Macclesfield, Cheshire, UK. Gene expression was under the control of hygromycin, together with a β-gal reporter construct, selected for resistance to G418. They were maintained in DMEM supplemented with 2 mM glutamine, hygromycin B ([…]), G418 ([…]), and 10% FCS, under an atmosphere of 10% CO2 in air. To determine the effect of agonists on cyclic AMP production, cells were grown in 24-well plates containing 1 ml of nutrient medium.

[2] = test system: adipocytes and gastrocnemius muscle of ob/ob mice; assay: Glucose uptake into adipocytes and gastrocnemius muscle of ZAG-treated ob/ob mice; format: in vivo, mouse
Description: Glucose Uptake into Adipocytyes. Isolated adipocytes (5×10^4) were washed twice in 1 ml Krebs-Ringer bicarbonate buffer, pH 7.2 (KRBS) and further incubated for 10 min at room temperature in 0.5 ml KRBS containing 18.5 MBq 2-[1-^14C] deoxy-D-glucose and non-radioactive 2-deoxy-D-glucose to a final concentration of 0.1 mM. Uptake was terminated by the addition of 1 ml ice-cold glucose-free KRBS, and the cells were washed three times with 1 ml KRBS, lysed by addition of 0.5 ml 1M NaOH and left for at least 1 h at room temperature before the radioactivity was determined by liquid scintillation counting.
Glucose Uptake into Gastrocnemius Muscle—Gastrocnemius muscles were incubated in Krebs-Henseleit bicarbonate buffer for 45 min at 37° C. and then incubated for a further 10 min in 5 ml Krebs-Henseleit buffer containing 185M Bq 2-[1-^14C] deoxy-D-glucose and non-radioactive 2-deoxy-D-glucose to a final concentration of 0.1 mM. The muscles were then removed and washed in 0.9% NaCl for 5 min followed by dissolution in 0.5 ml 1M NaOH and the radioactivity was determined by liquid scintillation counting.

[3] = test system: skeletal muscle of ob/ob mice; assay: Protein synthesis and degradation in skeletal muscle of ZAG-treated ob/ob mice; format: in vivo, mouse; conditions: ob/ob mice treated 5 days
Description: Protein Synthesis and Degradation in Muscle. The method for the determination of protein synthesis and degradation in muscle has been previously described (Smith, K. L. & Tisdale, M. J. Increased protein degradation and decreased protein synthesis in skeletal muscle during cancer cachexia. Br. J. Cancer 67, 680-685 (1993)). […] Protein synthesis was measured by the incorporation of L-[2,6-^3H] phenylalanine (640 MBq) into acid-insoluble material using a 2 h period in which the muscles were incubated at 37° C. in RPMI/640 without phenol red and saturated with O2:CO2 (19:1). Muscles were then rinsed in non-radioactive medium, blotted and homogenised in 2% perchloric acid. The rate of protein synthesis was calculated by dividing the amount of protein-bound radioactivity by the amount of acid soluble radioactivity. Protein degradation was determined by the release of tyrosine from gastrocnemius muscle over a 2 h period in 3 ml of oxygenated Krebs-Henseleit buffer, pH7.4, containing 5 mM glucose and 0.5 mM cycloheximide.

[4] = test system: gastrocnemius muscle of ob/ob mice; assay: Proteasome activity and Western blots in gastrocnemius muscle of ZAG-treated ob/ob mice; format: in vivo, mouse
Description: Measurement of Proteasome and Caspase Activity. […] Gastrocnemius muscle was homogenised in 20 mM Tris, pH7.5, 2 mM ATP, 5 mM MgCl2 and 50 mM DTT at 4° C., sonicated and centrifuged at 18,000 g for 10 min at 4° C. to pellet insoluble material, and the resulting supernatant was used to measure ‘chymotrypsin-like’ enzyme activity in the presence or absence of the proteasome inhibitor lactacystin (10 μM). Only lactacystin suppressible activity was considered as true proteasome activity. The activity of caspase-3 was determined by the release of AMC from AcAsp.Gly.Val.Asp.AMC (SEQ ID NO: 3), and the activity of caspase-8 was determined by the release of 7-amino-4-trifluromethylcoumarin (AFC) from the specific substrate Z-Ile Glu Phe Thr Asp-AFC (SEQ ID NO: 4), using the supernatant from above (50 μg protein), and either the caspase-3 or -8 substrate (10 μM) for 1 h at 37° C., in the presence or absence of the caspase-3 (AcAspGluValAsp-CHO) (SEQ ID NO: 5) or caspase-8 (Ile Glu Phe Thr Asp-CHO) (SEQ ID NO: 6) inhibitors (100 μM). The increase in fluorescence due to […] was determined as above, while the increase in fluorescence due to AFC was measured with an excitation wavelength of 400 nm and an emission wavelength of 505 nm. The difference in values in the absence and presence of the caspase inhibitors was a measure of activity.
(§2) Western Blot Analysis. Freshly excised gastrocnemius muscles were washed in PBS and lysed in PHOSPHOSAFE™ Extraction Reagent for 5 min at room temperature followed by sonication at 4° C. The lysate was cleared by centrifugation at 18,000 g for 5 min at 4° C. and samples of cytosolic protein (5 μg) were resolved on 12% sodium dodecyl sulfate-polyacrylamide gel electrophoresis at 180V for approximately 1 h. This was followed by transference to 0.45 μm nitrocellulose membranes, which were then blocked with 5% Marvel in Tris-buffered saline, pH 7.5, at 4° C. overnight. Both primary and secondary antibodies were used at a dilution of 1:1000 except anti-myosin (1:250). Incubation was for 1 h at room temperature, and development was by ECL. Blots were scanned by a densitometer to quantify differences.

[5] = test system: adipocytes, BAT; assay: Expression of ZAG, HSL, UCP in adipose tissue/adipocytes of mice (5 day ZAG study); format: in vivo, mouse
Description: as §2
A 5 day study was performed where ZAG was administered at 35 μg per day i.v. on a daily basis for 5 days. At the end of the experiment tissues were removed and blotted, or functional assays were carried out with isolated adipocytes. […] When ep adipocytes were prepared and maintained in tissue culture (RPMI 1640+10% FCS) ZAG expression was maintained for a further 3 days, even though no ZAG was added to the culture medium (FIG. 6B). […] In fact, as discussed above, too much ZAG is more likely to lead to resistance rather than an increased response.

[6] = molecular target: β3-AR (Homo sapiens, UniProt P13945); assay: Cyclic AMP production in CHO-K1 cells transfected with β3-AR; format: cell-based; parameters: host or cells: CHO-K1; conditions: CHO-K1 β3-AR
Sequence of β3-AR (P13945 whole entry): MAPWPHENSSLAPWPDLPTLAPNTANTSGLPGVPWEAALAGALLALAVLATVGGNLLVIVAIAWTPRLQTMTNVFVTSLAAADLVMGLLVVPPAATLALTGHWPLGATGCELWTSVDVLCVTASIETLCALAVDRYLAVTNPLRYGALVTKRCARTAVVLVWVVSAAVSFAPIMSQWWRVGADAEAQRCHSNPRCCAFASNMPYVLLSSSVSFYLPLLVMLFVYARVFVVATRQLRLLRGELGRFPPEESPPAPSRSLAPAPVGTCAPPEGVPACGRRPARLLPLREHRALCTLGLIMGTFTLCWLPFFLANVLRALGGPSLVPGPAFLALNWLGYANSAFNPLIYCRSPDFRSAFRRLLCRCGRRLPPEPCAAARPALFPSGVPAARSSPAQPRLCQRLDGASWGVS
Description: as §1

B1: ZAG: recombinant full length human zinc-α2-glycoprotein (SEQ ID NO: 1) secreted by transfected HEK293F cells; lipid mobilizing factor (protein, listed as Homo sapiens)
chain: QENQDGRYSLTYIYTGLSKHVEDVPAFQALGSLNDLQFFRYNSKDRKSQPMGLWRQVEGMEDWKEDSQLQKAREDMETLKDIVEYYNDSNGSHVLQGRFGCEIENNRSSGAFWKYYYDGKDYIEFNKEIPAWVPFDPAAQITKQKWEAEPVYVQRAKAYLEEECPATLRKYLKYSKNILDRQDPPSVVVTSHQAPGEKKKLKCLAYDFYPGKIDVHWTRAGQVQEPELRGDVLHNGNGTYQSWVVVAVPPQDTAPYSCHVQHSSLAQPLVVPWEAS
- concentration required to stimulate cyclic AMP production [1]: 580 nM
- glucose uptake into gastrocnemius muscle ([2]; absence and presence of insulin (100 nM)): significantly enhanced
- glucose uptake into epididymal, visceral and subcutaneous adipocytes ([2]; absence of insulin, ob/ob mice treated 5 days): increased glucose uptake
- decrease in protein degradation [3]: 60%
- protein synthesis in soleus muscle [3]: over a two-fold increase
- expression of 20S proteasome α-subunits and p42 ([4]; gastrocnemius muscle): decreased expression
- phosphorylated forms of PKR and eIF2α ([4]; gastrocnemius muscle): reduction in the level of phosphorylated forms
- proteasome 'chymotrypsin-like' enzyme activity ([4]; gastrocnemius muscle): decreased activity
- myosin levels ([4]; skeletal muscle): increased
- ZAG expression in epididymal, subcutaneous and visceral fat ([5]; 35 μg per day i.v., 5 days): about two-fold
- time increased response to isoprenaline was maintained in tissue culture without ZAG ([5]; adipocytes from ZAG treated mice, isoprenaline 10 μM): 4 days
- expression of phospho HSL in adipocytes ([5]; adipocytes of non-obese mice, 3 h): increased expression of phospho HSL
- expression of UCP1 and UCP3 in BAT ([5]; ob/ob mice treated 5 days): increased the expression of UCP1
- lowest concentration to stimulate cyclic AMP production [6]: 350 nM
